The labels stand for the following.
T1: rhMER-ECD (human, UniProt Q12866 21-505)
T1 construct: extracellular domain
T1 sequence (looked up): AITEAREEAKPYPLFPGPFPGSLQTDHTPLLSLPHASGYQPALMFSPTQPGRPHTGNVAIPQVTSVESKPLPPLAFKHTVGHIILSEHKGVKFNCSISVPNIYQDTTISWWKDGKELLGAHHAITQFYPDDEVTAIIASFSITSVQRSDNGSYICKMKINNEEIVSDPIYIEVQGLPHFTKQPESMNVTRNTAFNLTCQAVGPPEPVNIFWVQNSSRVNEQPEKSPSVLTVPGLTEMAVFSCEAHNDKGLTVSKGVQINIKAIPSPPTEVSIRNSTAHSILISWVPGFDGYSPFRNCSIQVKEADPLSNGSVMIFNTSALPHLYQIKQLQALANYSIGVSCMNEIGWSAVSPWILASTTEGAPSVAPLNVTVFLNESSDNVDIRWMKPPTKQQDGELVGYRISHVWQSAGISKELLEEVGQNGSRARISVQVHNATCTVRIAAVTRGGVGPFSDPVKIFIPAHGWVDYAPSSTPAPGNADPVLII

T2: rhTyro-3 (human, UniProt Q06418 41-429)
T2 construct: extracellular domain
T2 sequence (looked up): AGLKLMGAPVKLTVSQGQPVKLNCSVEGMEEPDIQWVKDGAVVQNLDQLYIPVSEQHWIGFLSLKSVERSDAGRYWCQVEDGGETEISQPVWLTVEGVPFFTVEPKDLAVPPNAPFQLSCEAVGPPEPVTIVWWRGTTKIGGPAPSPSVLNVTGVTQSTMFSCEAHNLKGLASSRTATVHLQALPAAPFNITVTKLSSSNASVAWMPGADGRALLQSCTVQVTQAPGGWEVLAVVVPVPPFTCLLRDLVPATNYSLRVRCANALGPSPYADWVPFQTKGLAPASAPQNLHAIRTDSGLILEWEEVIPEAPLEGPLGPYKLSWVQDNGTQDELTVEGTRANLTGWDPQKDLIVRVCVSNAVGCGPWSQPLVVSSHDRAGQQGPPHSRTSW

T3: human AXL expressed on the cell surface of tumor cell lines (human, UniProt P30530 26-894)
T3 construct: whole, on cells; also called cell surface-expressed AXL; cell-based AXL
T3 sequence (looked up): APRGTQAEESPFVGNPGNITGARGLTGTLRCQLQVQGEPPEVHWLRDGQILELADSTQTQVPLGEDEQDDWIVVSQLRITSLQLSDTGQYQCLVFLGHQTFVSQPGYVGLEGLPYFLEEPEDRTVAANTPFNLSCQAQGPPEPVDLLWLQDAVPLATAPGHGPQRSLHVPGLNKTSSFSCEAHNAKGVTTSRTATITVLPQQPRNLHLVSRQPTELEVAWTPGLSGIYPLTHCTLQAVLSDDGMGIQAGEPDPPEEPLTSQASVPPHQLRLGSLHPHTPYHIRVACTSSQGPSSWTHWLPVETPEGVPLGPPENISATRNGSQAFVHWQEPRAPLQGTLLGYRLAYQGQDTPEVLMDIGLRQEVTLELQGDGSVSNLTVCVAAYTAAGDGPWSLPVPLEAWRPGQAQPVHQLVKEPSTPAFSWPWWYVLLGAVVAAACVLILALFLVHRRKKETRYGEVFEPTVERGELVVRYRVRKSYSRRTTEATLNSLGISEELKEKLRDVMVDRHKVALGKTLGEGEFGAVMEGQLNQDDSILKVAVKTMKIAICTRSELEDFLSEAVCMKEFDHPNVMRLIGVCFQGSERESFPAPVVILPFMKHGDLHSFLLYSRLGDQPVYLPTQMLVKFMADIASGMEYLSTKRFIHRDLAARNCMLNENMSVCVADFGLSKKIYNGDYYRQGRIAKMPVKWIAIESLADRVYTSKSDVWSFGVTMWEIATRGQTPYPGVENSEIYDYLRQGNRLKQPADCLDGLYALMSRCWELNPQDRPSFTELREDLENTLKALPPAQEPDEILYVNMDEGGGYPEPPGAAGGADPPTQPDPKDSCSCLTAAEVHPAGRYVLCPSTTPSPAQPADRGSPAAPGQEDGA

B1: F107-10G1 (antibody, V domains shown)
VH: EVNLVESGGGVVKPGASLKLSCEASGFTFSNYGMSWVRQTSDKRLEWVASISGGGGRTYYLDNVKGRFIISRENAKNTLYLQMSSLKSEDTALFYCARGARASYFAMDYWGQGSSVTVSS
VL: VIVMTQSHKFMSTSVGDRVSITCKASQDVTTAVAWYQQKPGQSPKLLIYWASTRHTGVPDRFTGSGSGTDYSLTISNVQTEDLAFYYCQQHFTTPLTFGAGTKLELK
notes: also called F107-10G1-3
B2: F111-5E9 (antibody, V domains shown)
VH: QIQLVQSGPELKKPGETVKISCKASGYTFTKYGMNWVKQAPGKGLKWMGWINTYTGEPTYADDFKGRFAFSLETSASTAYLQINNLTTEDMVTYFCAKGGYYSNPIYPMDYWGQGTSVTVSS
VL: DIQMTQTTSSLSASLGDRVTISCRASQDINNYLNWYQQKPDGTVKLLIYYISRLHSGVPSRFSGSGSGTDYSLTISNLELEDVATYFCQQGNTLPFTFGSGTKLEIK
notes: also called F111-5E9-2; mAb 5E9
B3: F111-3C8 (antibody, V domains shown)
VH: QVQLQQPGAELGKPGTSVKLSCKASGYTFTSYWMHWVKRVPGQGLEWIGNINPNSTSADYNEKFKRKATLTVDKSSSTAYMQLSTLTSEDSAVYYCTRPLMGPYWYFDVWGTGTTVTVSS
VL: QIVLTQSPAIMSASPGEKVTISCSASSSVSYMYWYQQKPGSSPKPWIYRTSNLASGVPARFSGSGSGTSYSLTISSMEAEDAATYYCQQYHNYPPTFGGGTKLEIK
notes: also called F111-3C8-2
B4: F107-8D12 (antibody, V domains shown)
VH: QVQLQQPGAELVKPGASVQLSCKASGYTFISFWINWVKQRPGQGLEWMGNIFPGSSSTNYNEKFKSKATLTVDKSSSTAYMQLSSLTSEDSAVYFCARDYYGGSPDYWGQGTTLTVSS
VL: DIVMSQSPSSLAVSAGERVTMSCKSSQSLLNTRTRKNYLAWYQQKPGQSPKLLIYWASTRESGVPDRFTGSGSGTDFTLTISSVQAEDLAVYYCKQSYNLWTFGGGTKLEIK
notes: also called F107-8D12-2; mAb 8D12
B5: F107-7H5 (antibody, V domains shown)
VH: QVQLQQPGAELVKPGASVKLSCKASGYTFTSYWINWVKQRPGQGLEWIGNIYPDSSSTNYNEKFKSKATLTVDKSSTTAYIQFSSLTSEDSAVYYCTRDTYGGSPDYWGQGTTLTVSS
VL: B4 VL with R18K, T32S, N37I, E61Q
notes: also called F107-7H5-2; mAb 7H5

Residue numbers refer to the chain shown, from its start.

One assay addresses T1, rhMER-ECD. Nature of the assay: ELISA on coated antigen. The protocol: (§1) To evaluate the cross-reactivity of the mAb to other members of the TAM receptor tyrosine kinase subfamily, binding of the mAb to rhAXL-ECD, rhMER-ECD, rhTyro-3 and BSA (negative control) was measured by ELISA. 96-w half-area plates (Costar) were coated with 25 μl of rhAXL-ECD, rhMER-ECD, rhTyro-3 or BSA at 5 μg/ml in PBS and incubated overnight at 4° C. Microplates were washed 3 times with PBS, blocked with PBS-BSA 1%, and 25 μl of a 10 μg/ml diluted in PBS-BSA 1% were added and incubated at 37° C., 5% CO₂ for 2 hours. Plates were washed 4 times with PBS-TWEEN™ 20 0.05% and incubated for one hour at 37° C., 5% CO₂ with 25 μl of secondary antibody alkaline phosphatase conjugated F(ab)′2 goat anti-mouse IgG (H+L) (Jackson Immunoresearch) diluted 1/5000 in blocking buffer. After 4 washes with PBS-Tween 20 0.05%, 25 μl of a 1 mg/ml pN PP substrate solution was added and further incubated for one hour at 37° C. OD405 nm measurements were done using a microplate reader (Spectramax 340 PC, Molecular Devices).
A general note: ELISA stands for enzyme-linked immunosorbent assay.
Take B1: the binding result is “no binding (tested: 10 µg/ml)”.

Turning to B2, the binding result was “no binding (tested: 10 µg/ml)”.

Turning to B3, the binding result is “no binding (tested: 10 µg/ml)”.

With B4, the binding result is “no binding (tested: 10 µg/ml)”.

Consider B5, for which the binding result was “no binding (tested: 10 µg/ml)”.

For a further assay, the target named is T2, rhTyro-3. Nature of the assay: ELISA on coated antigen. The protocol: as §1
With B1, the binding result is listed as “no binding (tested: 10 µg/ml)”.

Consider B2, for which the binding result was “no binding (tested: 10 µg/ml)”.

For the molecule B3, the binding result is on record as “no binding (tested: 10 µg/ml)”.

With B4, the binding result is on record as “no binding (tested: 10 µg/ml)”.

Turning to B5, the binding result is “no binding (tested: 10 µg/ml)”.

Another assay deals with T4, BSA (UniProt P02769 25-607).
T4 construct: also called BSA (negative control)
T4 sequence (P02769 25-607 limits assumed): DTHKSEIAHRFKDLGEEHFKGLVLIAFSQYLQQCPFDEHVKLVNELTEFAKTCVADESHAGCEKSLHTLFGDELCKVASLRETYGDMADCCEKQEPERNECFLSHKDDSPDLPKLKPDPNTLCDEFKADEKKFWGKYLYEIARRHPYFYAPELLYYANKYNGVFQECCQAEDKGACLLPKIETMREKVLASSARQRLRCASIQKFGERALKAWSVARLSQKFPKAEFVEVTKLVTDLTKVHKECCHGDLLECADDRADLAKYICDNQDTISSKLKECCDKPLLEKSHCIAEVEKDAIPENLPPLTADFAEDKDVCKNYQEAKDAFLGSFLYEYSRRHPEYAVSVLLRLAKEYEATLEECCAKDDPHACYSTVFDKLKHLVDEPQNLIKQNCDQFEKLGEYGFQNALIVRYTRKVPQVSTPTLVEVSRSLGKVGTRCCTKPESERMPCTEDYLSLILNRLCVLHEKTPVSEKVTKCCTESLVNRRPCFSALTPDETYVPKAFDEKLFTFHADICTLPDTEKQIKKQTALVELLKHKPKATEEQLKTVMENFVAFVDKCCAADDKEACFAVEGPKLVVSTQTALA
Put plainly: ELISA on coated antigen. The procedure: as §1
As to B1, the binding result is given as “no binding (tested: 10 µg/ml)”.

On to B2, for which the binding result was “no binding (tested: 10 µg/ml)”.

Regarding B3, the binding result is “no binding (tested: 10 µg/ml)”.

Turning to B4, the binding result is “no binding (tested: 10 µg/ml)”.

Consider B5, for which the binding result is recorded as “no binding (tested: 10 µg/ml)”.

The target in a further assay is T3, human AXL expressed on the cell surface …. Nature of the assay: flow cytometry on H292 cells, one site-specific binding with Hill slope. The procedure:
Detection of antibody binding to surface AXL by flow cytometry. Prior to analysis, cells were plated such that they were not more than 80% confluent on the day of analysis. Cells were washed in PBS and harvested by the addition of cell dissociation buffer (Sigma). A cell suspension containing 2.5×10⁵ cells (in 500 μl corresponding cell culture media) was incubated with various concentrations (0.01-10 nM) of anti-AXL antibodies for 2 h at 4° C. (to prevent internalization). Following one wash with cell culture media, primary antibody was incubated with 2 μg DYLIGHT™ 488 conjugated AffiniPure goat anti-mouse IgG Alexa 488 secondary antibody (Jackson ImmunoResearch) in 100 μl of media for 1 h at 4° C. Prior to analysis, cell pellets were re-suspended in 300-500 μl media and filtered through a 50 μm nylon mesh filter to remove cell aggregates. Flow cytometry analyses were performed on 10,000 viable cells gated on forward scattering, side scattering parameters and propidium iodide dye exclusion using a BD LSRII flow Cytometer (Becton-Dickinson Biosciences, CA, USA) and a standard filter set using BD FACSDiva™ acquisition software, according to manufacturer's instructions.
Specific detection of antibody binding was calculated as the mean fluorescent intensity of binding to each primary antibody after background level subtraction of the mean fluorescent intensity of binding in the absence of primary antibody (but containing detection antibody). Binding parameters Bmax, (maximum fluorescence signal at receptor saturation), and KD (apparent cell binding constant) were then determined using a One site—Specific binding with Hill slope model in GraphPad Prism v 6.0.
(In general: Flow cytometry measures light scatter and fluorescence of single cells or particles in a stream.)
In the case of B1, the Bmax was 937 MFI.

In the case of B2, the Bmax was determined as 1150 MFI.

B3 registered a Bmax of 1480 MFI.

B4 showed a Bmax of 1310 MFI.

B5 registered a Bmax of 1430 MFI.

For the origin of these results see patent US20240076389A1 (NATIONAL RESEARCH COUNCIL OF CANADA, published 2024).
